# Measured values from patent US20250027068.
# Numbering of substitutions follows the chain as printed.
# B1: PRT-631 (protein)
# chain: MQITSVWTKGVTPLTPEQFRYNNEDVIHAPYLAHQGWYDITKAFDGKDNLLCGAATAGNMLHWWFDQNKEEIDNYLKKYPDKQKIIFNNQELFDLKAAIDTKDSQTNSQLFNYFRDKAFPNLSARQLGVMPDLVLDMFINGYYLNVFKTQSTDVNRPYQDKDKRGGIFDAVFTRGDQTTLLTARHDLKNKGLNDISTIIKQELTEGRALALSHTYANVSISHVINLWGADFNAEGNLEAIYVTDSDANASIGMKKYFVGINAHGHVAISAKKIEGENIGAQVLGLFTLSSGKEIWKKLSLEHHHHHH
# B2: PRT-626 (protein)
# chain: MQITSVWTKGVTPLTPEQFRYNNEDVIHAPYLAHQGWYDITKAFDGKDNLLCGAATAGNMLHWWFDQNKTEIEAYLSKHPEKQKIIFNNQELFDLKAAIDTKDSQTNSQLFNYFRDKAFPNLSARQLGVMPDLVLDMFINGYYLNVFKTQSTDVNRPPDDKDKRGGIFDHVFNRGDQTTLLTARHDLKNKGLNDISTIIKQELTEGRALALSHTYANVSISHVINLWGADFNAEGNLEAIYVTDSDANASIGMKKYFVGINAHGHVAISAKKIEGENIGAQVLGLFTLSSGKDIWQKLSLEHHHHHH
# B3: PRT-645 (protein)
# chain: MQITSVWTKGVTPLTPEQFRYNNEDVIHAPYLAHQGWYDITKAFDGKDNLLCGAATAGNMLHWWFDQNKTEIEAYLSKHPEKQKIIFNNQELFDLKAAIDTKDSQTNSQLFNYFRDKAFPNLSARQLGVMPDLVLDMFINGYYLNVFKTQSTDVNRPYQDKDKRGGIFDAVFTRGDQTTLLTARHDLKNKGLNDISTIIKQELTEGRALALSHTYANVSISHVINLWGADFNAEGNLEAIYVTDSDANASIGMKKYYVGYNKSGRVAISAYKITDENIGAQVLGLFTLSSGKDIWQKLSLEHHHHHH
# B4: PRT-604 (protein)
# chain: B2 chain with P158Y, D159Q, H170D, N173G, R174K
# B5: PRT-649 (protein)
# chain: MQITSVWTKGVTPLTPEQFRYNNEDVIHAPYLAHQGWYDITKAFDGKDNLLCGAATAGNMLHWWFDQNKTEIEAYLSKHPEKQKIIFNNQYLFDLKAAIDTKDSQTNSQLFNYFRDKAFGNLSARQLGVMPDLVLDMFINGYKLKVNKTQSTDVNRPYQKPDNFGGIFDAVFTRGDQTTLLTARHDLKNKGLNDISTIIKQELTEGRALALSHTYANVSISHVINLWGADFNAEGNLEAIYVTDSDANASIGMKKYFVGINAHGHVAISAKKIEGENIGAQVLGLFTLSSGKDIWQKLSLEHHHHHH
# B6: PRT-638 (protein)
# chain: MQITSVWTKGVTPLTPEQFRYNNEDVIHAPYLAHQGWYDITKLNDTGDGLLCGAATAGNMLHWWFDQNKTEIEAYLSKHPEKQKIIFNNQELFDLKAAIDTKDSQTNSQLFNYFRDKAFPNLSARQKGVMPDLVLDMFINGYYLNVFKTQSTDVNRPYQDKDKRGGIFDAVFTRGDQTTLLTARHDLKNKGLNDISTIIKQELTEGRALALSHTYANVSISHVINLWGADFNAEGNLEAIYVTDSNAGNGIGMKKYFVGINAHGHVAISAKKIEGENIGAQVLGLFTLSSGKDIWQKLSLEHHHHHH
# B7: PRT-680 (protein)
# chain: B2 chain with A33P, K96R, D100N, Q109A, P158Y, D159Q, H170A, N173T, R207K, F257Y
# B8: PRT-676 (protein)
# chain: MQITSVWTKGVTPPTMDQFTNYNYDVFHAPYKPGQGWYDITKTFDGKDNLLCGAATAGNMLHWWFDQNKEEIENYLKKHPEKQKIIFNNQKMFDLRKAINTKDSQTNSALFNYFKDKAFPNLSARQKGVMPDLVLDMFINGYYLNLGKTQSTDVNREYQTKDSRGGIFDDVFGRGDQTKLLTARHDLYNGGLNDISQLIKQELSSGKALGLSHTYANVRYSHVINLWGADFDEEGNLEAIYVTDSDDDASIGMKKYYVGKNASGKVAISAKKIEGENIGAQVLGLFTLSSGKEIWQKLSLEHHHHHH
# B9: PRT-669 (protein)
# chain: MQITSVWTKGVTPPTPEQFTNNNEDVFHAPYLANQGWYDITKTFNGKDNLLCGAATAGNMLHWWFDQNKEQIEAYLKKHPEKQKIIFNNQEMFDLKKAIDTKDSQTNSALFNYFRDKAFPNLSARQLGVMPDLVLDMFINGYYLNVGKTQSTDVNRPYQTKDKRGGIFDAVFTRGDQTKLLTARHDLKNKGLNEISDLIKQELTEGKALALSHTYANVRINHVINLWGADFNAEGNLIAIYVTDSDSNASIGMKKYFVGVNSAGKVAISAKKIEGDNIGAQVLGLFTLSSGQDIWQKLSLEHHHHHH
# B10: PRT-616 (protein)
# chain: MQITTVWTKGVTPLTPEQFRYNNEDVIHAPYLPHQGWYDITKAFDGKDNLLCGAATAGNMLHWWFDQNKTEIEAYLSKYPEKQKIIFNNQELFDLRAAINTKDSQTNSQLFNYFRDKAFPNLSARQLGVMPDLVLDMFINGYYLNVFKTQSTDVNRPYQDRDKRGGIFDAVFNRGDQTTLLTARHDLKNKGLNDISTIIKQELSSGRALALSHTYANVSISHVINLWGADFNAEGNLEAIYVTDSDANASIGMKKYYVGINAHGHVAISAKKIEGENIGAQVLGLFTLSSGKDIWQKLSLEHHHHHH
# Target: pooled human IgG (human IgG1,2,3 and 4)
Protein,Enzyme activity endpoint: Fab′2 [ng/µL],Enzyme activity endpoint: Fc [ng/µL],Enzyme activity endpoint: IgG [ng/µL],Enzyme activity endpoint: scIgG [ng/µL]
B1,749,419,0,0
B2,569,388,0,225
B3,683,455,0,236
B4,51,276,396,964
B5,657,32,886,24
B6,550,10,823,17
B7,752,451,0,277
B8,107,136,0,118
B9,808,457,0,0
B10,943,495,0,0
